According to patent US20240352132A1 (JIANGSU HENGRUI PHARMACEUTICALS, published 2024):

Key:
[1] = target: T1, HGFR protein extracellular domain with the His tag (human, UniProt P08581 25-932); assay: flow cytometry on HGFR CHO-S stably transfected cells, R-PE goat anti-human (H+L) detection
T1 construct: also called HGFR-His; human HGFR
Description: (§1) The binding activity of antigen-binding molecules specifically binding to HGFR and EGFR to cells was detected using a flow cytometer. EGFR CHO-S stably transfected cell strain, HGFR CHO-S stably transfected cell strain, and H1975-HGF or MKN-45 tumor cell strain at 1×10⁶ cells/mL were blocked with 1% BSA PBS buffer, followed by the addition of diluted antibody samples at different concentrations (C25 was a negative control, which was an IgGI antibody protein of irrelevant targets, the same applied hereinafter), and the mixtures were incubated for 1 h. After the mixtures were washed twice, R-PE-goat anti-human (H+L) antibody (Invitrogen, CAT #H10104) was added, and the mixtures were incubated for 0.5 h. After the plate was washed twice, fluorescence signals were read using a flow cytometer.

[2] = target: T2, human EGFR protein extracellular domain with the His tag (human, UniProt P00533 25-645); assay: flow cytometry on EGFR CHO-S stably transfected cells, R-PE goat anti-human (H+L) detection
T2 construct: also called EGFR-His
Description: as §1

[3] = target: T2, human EGFR protein extracellular domain …; assay: SPR Biacore T200, antibody captured on Protein A, antigen in flow, 1:1 fit
Protocol: (§2) The affinity of the test molecule for human EGFR (SEQ ID NO: 42) or human HGFR protein (SEQ ID NO: 43) was determined by Biacore T200 (GE) as follows:
(§3) The antibody molecules were affinity-captured on a Protein A biosensor chip of which antigens flowed through the surface for 180 s, and then the antibody molecules were dissociated for 600 s. The reaction signals were detected in real time using a Biacore T200 instrument to obtain association and dissociation curves. After dissociation was completed for each cycle, the biosensor chip was washed with 10 mM Gly-HCl (pH 1.5) for regeneration. Data were fitted using a 1:1 model, and affinity values of the test molecules were obtained. In this example, the positive control MCLA was a bispecific antibody specifically binding to HGFR and EGFR (see PB8532 in WO2019031965 for specific sequences).

[4] = target: T1, HGFR protein extracellular domain with …; assay: as above
Protocol: as §2, §3

[5] = target: T2, human EGFR protein extracellular domain …; assay: competition ELISA, blocks EGF-mFc on captured EGFR-His
Protocol: 1 μg/mL rabbit anti-His antibody (GenScript, A01857) was coated overnight at 4° C. and then blocked. After the plate was washed, 2 μg/mL EGFR-His (SEQ ID NO: 42) was added, and the plate was incubated for 1 h. […] After the plate was washed, a tetramethylbenzidine solution was added for color development. Finally, a stop solution was added. OD450 values were measured on a microplate reader.

[6] = target: T1, HGFR protein extracellular domain with …; assay: competition ELISA, blocks bio-HGF-His on coated HGFR-His
Protocol: The ability of the antibodies to block HGF/HGFR was tested by ELISA. 5 μg/mL HGFR-His (for the sequence, see SEQ ID NO: 43) was coated overnight at 4° C. and then blocked. […] After the plate was washed, horseradish peroxidase-streptavidin (Jackson, 016-030-084) was added, and the plate was incubated for 1 h. After the plate was washed, a tetramethylbenzidine solution was added for color development. Finally, a stop solution was added. OD450 values were measured on a microplate reader.

[7] = target: T1, HGFR protein extracellular domain with …; assay: SPR Biacore T200
Protocol: as §2, §3

| Binder | EC50 (read off the curve) [1] | EC50 (read off the curve) [2] | Kd [3] | koff [3] | kon [3] | Kd [4] | koff [4] | kon [4] | IC50 [5] | IC50 [6] | fold affinity against Ab10 [7] |
| --- | --- | --- | --- | --- | --- | --- | --- | --- | --- | --- | --- |
| Omab (antibody, V domains shown, anti-HGFR antibody (WO2013003680A1); also called onartuzumab) VH: EVQLVESGGGLVQPGGSLRLSCAASGYTFTSYWLHWVRQAPGKGLEWVGMIDPSNSDTRFNPNFKDRFTISADTSKNTAYLQMNSLRAEDTAVYYCATYRSYVTPLDYWGQGTLVTVSS VL: DIQMTQSPSSLSASVGDRVTITCKSSQSLLYTSSQKNYLAWYQQKPGKAPKLLIYWASTRESGVPSRFSGSGSGTDFTLTISSLQPEDFATYYCQQYYAYPWTFGQGTKVEIK | ~0.4 nM | – | – | – | – | – | – | – | – | – | – |
| EM1 (bispecific antibody, human IgG1, kappa, Format 1: Zal.1 Fv on Ab10.1 Fab (knob) plus Omab Titin/Obscurin-substituted Fab (hole); four chains) heavy 1: not shown light 1: DIQLTQSPSSLSASVGDRVTITCRASQDISSALVWYQQKPGKAPKLLIYDASSLESGVPSRFSGSESGTDFTLTISSLQPEDFATYYCQQFNSYPLTFGGGTKVEIKGGGGSGGGGDIVLTQSPDSLAVSLGERATINCRADKSVSTSTYNYLHWYQQKPGQPPKLLIYRGSFLATGVPDRFSGSGSGTDFTLTISSLQAEDVAVYYCQHSRDLPPTFGQGTKLEIKRTVAAPSVFIFPPSDEQLKSGTASVVCLLNNFYPREAKVQWKVDNALQSGNSQESVTEQDSKDSTYSLSSTLTLSKADYEKHKVYACEVTHQGLSSPVTKSFNRGEC heavy 2: EVQLVESGGGLVQPGGSLRLSCAASGYTFTSYWLHWVRQAPGKGLEWVGMIDPSNSDTRFNPNFKDRFTISADTSKNTAYLQMNSLRAEDTAVYYCATYRSYVTPLDYWGQGTLVTVSSGGGGSGIPPKIECLPIDISIDEGKVLTVASAFTGEPTPEVTWSTGGRKIHSQEQGRFHIENTDDSTTLTIKDVQKQDGGLYTLTLRNEFGSDSATVNIHIRSIDKTHTCPPCPAPELLGGPSVFLFPPKPKDTLMISRTPEVTCVVVDVSHEDPEVKFNWYVDGVEVHNAKTKPREEQYNSTYRVVSVLTVLHQDWLNGKEYKCKVSNKALPAPIEKTISKAKGQPREPQVCTLPPSREEMTKNQVSLSCAVKGFYPSDIAVEWESNGQPENNYKTTPPVLDSDGSFFLVSKLTVDKSRWQQGNVFSCSVMHEALHNHYTQKSLSLSPGK light 2: DIQMTQSPSSLSASVGDRVTITCKSSQSLLYTSSQKNYLAWYQQKPGKAPKLLIYWASTRESGVPSRFSGSGSGTDFTLTISSLQPEDFATYYCQQYYAYPWTFGQGTKVEIKGGGGSSGAPRFLTRPKASVVSVGKDATLSCQIVGNPFPQVSWEKDKQPVTAGVRFRLAQDGDLYRLKILDLQLSDSGQYVCRARNAHGEAFACLGLQVDAEA | – | ~2 nM | 7.29 nM | 0.00103 s⁻¹ | 142000 M⁻¹ s⁻¹ | 2.26 nM | 0.000124 s⁻¹ | 54800 M⁻¹ s⁻¹ | 2.37 µg/mL | 0.25 µg/mL | – |
| Ab10.1 (antibody, V domains shown, CDR mutant of Ab10) VH: QVQLVESGGGVVQPGRSLRLSCAASGFSLSDYGVHWVRQAPGKGLEWLAVIWSGGSTNYADAFVSRLTISKDNSKNTVYLQMNSLRAEDTAVYYCARNHDNPYIYAMDYWGQGTTVTVSS VL: DIVLTQSPDSLAVSLGERATINCRADKSVSTSTYNYLHWYQQKPGQPPKLLIYRGSFLATGVPDRFSGSGSGTDFTLTISSLQAEDVAVYYCQHSRDLPPTFGQGTKLEIK | ~0.5 nM | – | – | – | – | 7.56 nM | 0.000309 s⁻¹ | 40800 M⁻¹ s⁻¹ | – | – | ≥ 4 fold |
| EM2 (bispecific antibody, human IgG1, kappa, Format 2: Omab Fab (knob) plus Zal.1 Titin/Obscurin-substituted Fab (hole); four chains) heavy 1: not shown light 1: DIQMTQSPSSLSASVGDRVTITCKSSQSLLYTSSQKNYLAWYQQKPGKAPKLLIYWASTRESGVPSRFSGSGSGTDFTLTISSLQPEDFATYYCQQYYAYPWTFGQGTKVEIKRTVAAPSVFIFPPSDEQLKSGTASVVCLLNNFYPREAKVQWKVDNALQSGNSQESVTEQDSKDSTYSLSSTLTLSKADYEKHKVYACEVTHQGLSSPVTKSFNRGEC heavy 2: QVQLVESGGGVVQPGRSLRLSCAASGFTFSTYGMHWVRQAPGKGLEWVAVIWDDGSYKYYGDSVKGRFTISRDNSKNTLYLQMNSLRAEDTAVYYCARDGITMVRGVMKDYFDYWGQGTLVTVSSGGGGSGIPPKIECLPIDISIDEGKVLTVASAFTGEPTPEVTWSTGGRKIHSQEQGRFHIENTDDSTTLTIKDVQKQDGGLYTLTLRNEFGSDSATVNIHIRSIDKTHTCPPCPAPELLGGPSVFLFPPKPKDTLMISRTPEVTCVVVDVSHEDPEVKFNWYVDGVEVHNAKTKPREEQYNSTYRVVSVLTVLHQDWLNGKEYKCKVSNKALPAPIEKTISKAKGQPREPQVCTLPPSREEMTKNQVSLSCAVKGFYPSDIAVEWESNGQPENNYKTTPPVLDSDGSFFLVSKLTVDKSRWQQGNVFSCSVMHEALHNHYTQKSLSLSPGK light 2: DIQLTQSPSSLSASVGDRVTITCRASQDISSALVWYQQKPGKAPKLLIYDASSLESGVPSRFSGSESGTDFTLTISSLQPEDFATYYCQQFNSYPLTFGGGTKVEIKGGGGSSGAPRFLTRPKASVVSVGKDATLSCQIVGNPFPQVSWEKDKQPVTAGVRFRLAQDGDLYRLKILDLQLSDSGQYVCRARNAHGEAFACLGLQVDAEA | – | – | – | – | – | 3.04 nM | – | – | – | – | – |
